Source: patent publication EP1708961B1 (Abbott Biotherapeutics Corp., dated 2011)
Positions count from the first letter of the chain named. Names and notes keep the numbering of the source. Values joined by “and” are separate entries in the source; they are usually repeats but may differ in a detail not shown here. Equal values may be shown once. Values belong to the binder of their own block, whether it stands above or below them.

Columns and labels:
recombinant human IP-10 [1] = target: T1, recombinant human IP-10 (human, UniProt P02778 22-98); experiment: competition ELISA on coated human IP-10, competitor: biotinylated MuAIP12; Exp. C
T1 construct: Bought from R&D Systems; also called CXCL10; rhIP-10
T1 sequence: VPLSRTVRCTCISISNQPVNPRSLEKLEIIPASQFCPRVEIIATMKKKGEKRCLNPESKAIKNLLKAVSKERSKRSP

recombinant human IP-10 [2] = target: T1, recombinant human IP-10; experiment: Biacore (SPR)
recombinant human IP-10 [3] = target: T1, recombinant human IP-10; experiment: competition ELISA on coated human IP-10, competitor: biotinylated MuAIP12; Exp. B
recombinant human IP-10 [4] = target: T1, recombinant human IP-10; experiment: competition ELISA on coated human IP-10, competitor: biotinylated MuAIP12; Exp. D
recombinant human IP-10 [5] = target: T1, recombinant human IP-10; experiment: cell-based or functional assay
recombinant human IP-10 [6] = target: T1, recombinant human IP-10; experiment: competition ELISA on coated human IP-10, competitor: biotinylated MuAIP12; average
recombinant human IP-10 [7] = target: T1, recombinant human IP-10; experiment: competition ELISA on coated human IP-10, competitor: biotinylated MuAIP12; Exp. A
recombinant human IP-10 [8] = target: T1, recombinant human IP-10; experiment: competition ELISA on coated human IP-10, competitor: biotinylated MuAIP13; Exp. C
recombinant human IP-10 [9] = target: T1, recombinant human IP-10; experiment: competition ELISA on coated human IP-10, competitor: biotinylated MuAIP13; Exp. B
recombinant human IP-10 [10] = target: T1, recombinant human IP-10; experiment: competition ELISA on coated human IP-10, competitor: biotinylated MuAIP13; average
recombinant human IP-10 [11] = target: T1, recombinant human IP-10; experiment: competition ELISA on coated human IP-10, competitor: biotinylated MuAIP13; Exp. A
recombinant human IP-10 [12] = target: T1, recombinant human IP-10; experiment: Biacore 2000 (SPR)
recombinant human IP-10 [13] = target: T1, recombinant human IP-10; experiment: competition ELISA on human IP-10, competitor: AIP13
recombinant human IP-10 [14] = target: T1, recombinant human IP-10; experiment: Biacore 2000 (SPR), antibody captured by goat anti-human IgG Fc, human IP-10 injected
recombinant human IP-10 [15] = target: T1, recombinant human IP-10; experiment: competition ELISA on coated human IP-10; Exp. A
recombinant human IP-10 [16] = target: T1, recombinant human IP-10; experiment: competition ELISA on coated human IP-10; average
recombinant human IP-10 [17] = target: T1, recombinant human IP-10; experiment: competition ELISA on coated human IP-10; Exp. D
recombinant human IP-10 [18] = target: T1, recombinant human IP-10; experiment: Biacore (Table 3)
recombinant human IP-10 [19] = target: T1, recombinant human IP-10; experiment: competition ELISA on coated human IP-10; Exp. C
recombinant human IP-10 [20] = target: T1, recombinant human IP-10; experiment: competition ELISA on coated human IP-10; Exp. B
recombinant human IP-10 [21] = target: T1, recombinant human IP-10; experiment: cell-based or functional assay; remark: listed apart in the source
recombinant human IP-10 [22] = target: T1, recombinant human IP-10; experiment: competition ELISA on coated human IP-10; average; remark: listed apart in the source
recombinant human IP-10 [23] = target: T1, recombinant human IP-10; experiment: competition ELISA on coated human IP-10; Exp. A; remark: listed apart in the source
recombinant human IP-10 [24] = target: T1, recombinant human IP-10; experiment: competition ELISA on coated human IP-10; Exp. B; remark: listed apart in the source
recombinant human IP-10 [25] = target: T1, recombinant human IP-10; experiment: competition ELISA on coated human IP-10; Exp. C; remark: listed apart in the source

B1: murine monoclonal antibody AIP12 (antibody, V domains shown)
VH: QIQLVQSGPELKKPGETVKISCKASGYTFTDYSMHWVKQAPGKGLKWMGWINTETGEPTYADDFKGRFAFSLETSASTAYLQINNLKNEDTATYFCARNYDYDGYFDVWGAGTTVTVSS
VL: DIQMTQSPSSLSASLGGKVTITCKASQDINKYIAWYQHKPGKGPRLLIHYTSTLQPGIPSRFSGSGSGRDYSFSISNLEPEDIATYYCLQYDNLLFTFGSGTKLEIK
notes: Mouse hybridoma antibody; also called MuAIP12
IC50 (recombinant human IP-10 [1]): 6.6 µg/mL | Kd (recombinant human IP-10 [2]): 0.275 nM | koff (recombinant human IP-10 [2]): 0.000282 s⁻¹ | kon (recombinant human IP-10 [2]): 1.05e+06 M⁻¹ s⁻¹ | IC50 (recombinant human IP-10 [3]): 4.4 µg/mL | IC50 (recombinant human IP-10 [4]): 4.2 µg/mL | inhibition of chemotaxis (IC50%) on recombinant IP-10, donor 215 (recombinant human IP-10 [5]): 130 ng/mL | inhibition of chemotaxis (IC50%) on recombinant IP-10, donor 318 (recombinant human IP-10 [5]): 41 ng/mL | inhibition of chemotaxis (IC50%) on recombinant IP-10, donor 1012 (recombinant human IP-10 [5]): 91 ng/mL | inhibition of chemotaxis (IC50%) on recombinant IP-10, donor 1022 (recombinant human IP-10 [5]): 135 ng/mL and 51 ng/mL and 86 ng/mL | inhibition of chemotaxis (IC50%) on recombinant IP-10, mean of donors (recombinant human IP-10 [5]): 89 ng/mL | IC50 (recombinant human IP-10 [6]): 5.4 µg/mL | IC50 (recombinant human IP-10 [7]): 6.5 µg/mL

B3: HuAIP12 G104A variant antibody (antibody, human IgG1, V domains shown)
VH: EVQLVQSGAEVKKPGATVKISCKVSGYTFTDYSMHWVRQAPGKGLKWMGWINTETGEPTYADDFKGRFTFTLDTSTSTAYMELSSLRSEDTAVYYCARNYDYDAYFDVWGQGTTVTVSS
VL: DIQMTQSPSSLSASVGDRVTITCKASQDINKYIAWYQQKPGKAPKLLIHYTSTLQPGIPSRFSGSGSGRDYTFTISSLQPEDIATYYCLQYDNLLFTFGQGTKLEIK
notes: Human IgG1/kappa (gamma-1 and kappa expression vectors), transiently expressed in 293-H cells
fold faster off-rate (kd) against unmodified HuAIP12 (recombinant human IP-10 [12]): ~2 fold | fold higher Kd against unmodified HuAIP12 (recombinant human IP-10 [12]): > 20 fold | fold slower on-rate (ka) against unmodified HuAIP12 (recombinant human IP-10 [12]): ~10 fold | fold weaker monovalent interaction against unmodified HuAIP12 (recombinant human IP-10 [12]): 20 fold | IC50 (recombinant human IP-10 [13]): 59.5 µg/mL | fold decrease in binding affinity against unmodified HuAIP12 (recombinant human IP-10 [13]): 14.5 fold | Kd (recombinant human IP-10 [14]): 5.98 nM | koff (recombinant human IP-10 [14]): 0.000784 s⁻¹ | kon (recombinant human IP-10 [14]): 131000 M⁻¹ s⁻¹

B5: 13H+12L antibody (antibody, V domains shown)
VH: B3 VH with T55I
VL: B3 VL
notes: HuAIP13 heavy chain with HuAIP12 light chain; human gamma-1/kappa
IC50 (recombinant human IP-10 [13]): 13.6 µg/mL

B6: 12H+13L antibody (antibody, V domains shown)
VH: B3 VH with A104G
VL: B3 VL with S26D, I48L, Y50H, N93S
notes: HuAIP12 heavy chain with HuAIP13 light chain; human gamma-1/kappa
IC50 (recombinant human IP-10 [13]): 3 µg/mL

Other lines, results leading:

IC50 (recombinant human IP-10 [8]): 1.8 µg/mL | IC50 (recombinant human IP-10 [9]): 2.4 µg/mL | IC50 (recombinant human IP-10 [10]): 2.1 µg/mL | Kd (recombinant human IP-10 [2]): 1.24 nM | koff (recombinant human IP-10 [2]): 0.000196 s⁻¹ | kon (recombinant human IP-10 [2]): 158000 M⁻¹ s⁻¹ | IC50 (recombinant human IP-10 [11]): 2.1 µg/mL | inhibition of chemotaxis (IC50%) on recombinant IP-10, donor 215 (recombinant human IP-10 [5]): 260 ng/mL | inhibition of chemotaxis (IC50%) on recombinant IP-10, donor 318 (recombinant human IP-10 [5]): 139 ng/mL | inhibition of chemotaxis (IC50%) on recombinant IP-10, donor 1012 (recombinant human IP-10 [5]): 84 ng/mL | inhibition of chemotaxis (IC50%) on recombinant IP-10, donor 1022 (recombinant human IP-10 [5]): 229 ng/mL and 154 ng/mL and 78 ng/mL | inhibition of chemotaxis (IC50%) on recombinant IP-10, mean of donors (recombinant human IP-10 [5]): 157 ng/mL
B2: murine monoclonal antibody AIP13 (antibody, V domains shown)
VH: B1 VH with T55I, G104A
VL: B1 VL with S26D, K42R, I48L, Y50H, E81A, N93S
notes: Mouse hybridoma antibody; Mouse IgG1/kappa was used as its isotype control; also called MuAIP13

fold slower off-rate against unmodified HuAIP12 (recombinant human IP-10 [12]): ~9 fold | fold stronger affinity against unmodified HuAIP12 (recombinant human IP-10 [12]): > 9 fold | IC50 (recombinant human IP-10 [13]): 1.6 µg/mL | Kd (recombinant human IP-10 [14]): 0.0269 nM | koff (recombinant human IP-10 [14]): 4.67e-05 s⁻¹ | kon (recombinant human IP-10 [14]): 1.66e+06 M⁻¹ s⁻¹
B4: HuAIP12 T55I variant antibody (antibody, V domains shown)
VH: B3 VH with T55I, A104G
VL: B3 VL

fold difference of IC50 against MuAIP12 (recombinant human IP-10 [15]): 2.9 fold | IC50 (recombinant human IP-10 [1]): 14.5 µg/mL | fold difference of IC50 against MuAIP12 (recombinant human IP-10 [16]): 2.5 fold | Kd (recombinant human IP-10 [2]): 0.472 nM | koff (recombinant human IP-10 [2]): 0.000357 s⁻¹ | kon (recombinant human IP-10 [2]): 755000 M⁻¹ s⁻¹ | fold difference of IC50 against MuAIP12 (recombinant human IP-10 [17]): 2.4 fold | IC50 (recombinant human IP-10 [3]): 10.7 µg/mL | IC50 (recombinant human IP-10 [13]): 3.1 µg/mL and 4.1 µg/mL | fold higher binding affinity than HuAIP13 (recombinant human IP-10 [18]): ~2.6 fold | IC50 (recombinant human IP-10 [4]): 10.3 µg/mL | inhibition of chemotaxis (IC50%) on recombinant IP-10, donor 215 (recombinant human IP-10 [5]): 142 ng/mL | inhibition of chemotaxis (IC50%) on recombinant IP-10, donor 318 (recombinant human IP-10 [5]): 38 ng/mL | inhibition of chemotaxis (IC50%) on recombinant IP-10, donor 1012 (recombinant human IP-10 [5]): 73 ng/mL | inhibition of chemotaxis (IC50%) on recombinant IP-10, mean of donors (recombinant human IP-10 [5]): 86 ng/mL | Kd (recombinant human IP-10 [14]): 0.251 nM | koff (recombinant human IP-10 [14]): 0.000381 s⁻¹ | kon (recombinant human IP-10 [14]): 1.55e+06 M⁻¹ s⁻¹ | IC50 (recombinant human IP-10 [6]): 13.5 µg/mL | fold difference of IC50 against MuAIP12 (recombinant human IP-10 [19]): 2.2 fold | fold difference of IC50 against MuAIP12 (recombinant human IP-10 [20]): 2.4 fold | IC50 (recombinant human IP-10 [7]): 18.6 µg/mL | IC50 of inhibition of IP-10 mediated chemotaxis (recombinant human IP-10 [21]): ~100 ng/mL
B7: humanized monoclonal antibody HuAIP12 (antibody, human IgG1, V domains shown)
VH: B3 VH with A104G
VL: B3 VL
notes: Human IgG1/kappa; also called unmodified HuAIP12; Wild Type

IC50 (recombinant human IP-10 [8]): 4.8 µg/mL | IC50 (recombinant human IP-10 [9]): 6.5 µg/mL | IC50 (recombinant human IP-10 [10]): 5.8 µg/mL | Kd (recombinant human IP-10 [2]): 1.24 nM | koff (recombinant human IP-10 [2]): 0.000194 s⁻¹ | kon (recombinant human IP-10 [2]): 156000 M⁻¹ s⁻¹ | fold difference of IC50 against MuAIP13 (recombinant human IP-10 [22]): 2.8 fold | fold difference of IC50 against MuAIP13 (recombinant human IP-10 [23]): 2.9 fold | fold difference of IC50 against MuAIP13 (recombinant human IP-10 [24]): 2.7 fold | IC50 (recombinant human IP-10 [11]): 6.1 µg/mL | IC50 (recombinant human IP-10 [13]): 9.2 µg/mL | inhibition of chemotaxis (IC50%) on recombinant IP-10, donor 215 (recombinant human IP-10 [5]): 139 ng/mL | inhibition of chemotaxis (IC50%) on recombinant IP-10, donor 318 (recombinant human IP-10 [5]): 45 ng/mL | inhibition of chemotaxis (IC50%) on recombinant IP-10, donor 1012 (recombinant human IP-10 [5]): 77 ng/mL | inhibition of chemotaxis (IC50%) on recombinant IP-10, mean of donors (recombinant human IP-10 [5]): 86 ng/mL | fold difference of IC50 against MuAIP13 (recombinant human IP-10 [25]): 2.7 fold | IC50 of inhibition of IP-10 mediated chemotaxis (recombinant human IP-10 [21]): ~100 ng/mL
B8: humanized monoclonal antibody HuAIP13 (antibody, human IgG1, V domains shown)
VH: B3 VH with T55I
VL: B3 VL with S26D, I48L, Y50H, N93S
notes: Human IgG1/kappa
